Data on 16 molecules can be found in patent US20250296971A1, “GASTRIC INHIBITORY PEPTIDE RECEPTOR LIGANDS” (priority 2021, published 2025).

The target in assay [1] is human Gastric Inhibitory Peptide Receptor (GIPR) (human) (UniProt P48546). Description: FACS competition vs biotinylated GIP-057 on CHO-K1-hGIPR cells; category C: pIC50 6.1-7.0.
For assay [2], the target named is human Gastric Inhibitory Peptide Receptor (human) (UniProt P48546). Description: FACS competition with GIP-057 on CHO-K1-hGIPR cells; pIC50 category A: >8.0.
Chain of human Gastric Inhibitory Peptide Receptor (human) (P48546 22-466 limits assumed): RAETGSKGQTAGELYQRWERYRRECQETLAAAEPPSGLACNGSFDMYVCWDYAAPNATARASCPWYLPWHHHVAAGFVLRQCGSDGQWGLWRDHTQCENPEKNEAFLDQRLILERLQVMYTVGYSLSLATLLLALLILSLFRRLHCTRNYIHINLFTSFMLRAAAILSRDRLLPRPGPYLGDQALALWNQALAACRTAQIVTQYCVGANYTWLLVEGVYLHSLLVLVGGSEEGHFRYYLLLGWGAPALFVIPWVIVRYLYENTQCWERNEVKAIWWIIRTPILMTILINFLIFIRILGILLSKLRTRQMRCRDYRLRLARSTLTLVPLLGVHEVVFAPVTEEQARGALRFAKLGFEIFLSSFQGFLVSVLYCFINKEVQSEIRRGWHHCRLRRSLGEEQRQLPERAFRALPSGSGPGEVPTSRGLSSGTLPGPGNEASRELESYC
Assay [3] has as its target biotinylated extracellular domain of the human GIP receptor (bioGIPR) (human) (UniProt P48546). Briefly: SPR single cycle kinetics, bioGIPR captured on chip; category B: pKD 8.1-9.0.
For assay [4] the target is unchanged. Briefly: SPR single cycle kinetics, bioGIPR captured on chip; category A: t1/2 >15 min.
Assay [5] deals with human Gastric Inhibitory Peptide Receptor (GIPR) (human) (UniProt P48546). Description: FACS competition vs biotinylated GIP-057 on CHO-K1-hGIPR cells; category B: pIC50 7.1-8.0.
Assay [6] shares this target. Briefly: FACS competition vs biotinylated GIP-057 on CHO-K1-hGIPR cells; category A: pIC50 >8.0.
In assay [7] the target is human Gastric Inhibitory Peptide Receptor (human) (UniProt P48546). Briefly: FACS competition with GIP-057 on CHO-K1-hGIPR cells; pIC50 category B: 7.1-8.0.

*1 amine or outer side, *2 acyl side, *3 side chain or, on linkers, in order; H or OH if unused. Bridges are numbered along the chain shown (N, C = ends). Primed or numbered codes have the meaning given here. Where no end group is shown, it is not given here. [ ]: non-standard residue; d: D form. The star is where a group is joined. Ttds = 1,13-diamino-4,7,10-trioxatridecan-succinamic acid, NCCCOCCOCCOCCCNC(=O)CCC(=O)*; APAc″ = 4-amino-1-carboxymethylpiperidine, NC1CCN(CC(=O)*)CC1; DOTA = O=C(O)CN1CCN(CC(=O)O)CCN(CC(=O)*)CCN(CC(=O)O)CC1; 2Lut = 2,6-lutidylidene bridge between two thiols; Trp(5-Cl) = N[C@@H](Cc1c[nH]c2ccc(Cl)cc12)C(=O)O; Phe(3,4-Cl2) = N[C@@H](Cc1ccc(Cl)c(Cl)c1)C(=O)O; Pyridine(2,6-diCH2) = c1cc(C[*:1])nc(C[*:2])c1; Trp(6-F) = N[C@@H](Cc1c[nH]c2cc(F)ccc12)C(=O)O; 2Lut″ = 2,6-lutidylidene linking two thiols; APAc = 4-amino-1-carboxymethylpiperidine; Phe(3-Cl) = N[C@@H](Cc1cccc(Cl)c1)C(=O)O; MeO10kDaPEGAc = polydisperse 10 kDa PEG; Pro(4S-NH2) = N[C@@H]1CN[C@H](C(=O)O)C1; Phe(2-Cl) = N[C@@H](Cc1ccccc1Cl)C(=O)O; mXylylene = c1cc(C[*:1])cc(C[*:2])c1; Cya = N[C@@H](CS(=O)(=O)O)C(=O)O; Hyp = O=C(O)[C@@H]1C[C@@H](O)CN1; hArg = N=C(N)NCCCC[C@H](N)C(=O)O; Cysteamide = C(CS[*:3])N[*:1]; Suc = O=C(CCC(=O)[*:2])[*:1]; hLys = NCCCCC[C@H](N)C(=O)O; Api = NC1(C(=O)O)CCNCC1; Thp = NC1(C(=O)O)CCOCC1; Aib = CC(C)(N)C(=O)O

Chain of human Gastric Inhibitory Peptide Receptor (GIPR) (human) (P48546 22-466 limits assumed): as above
Chain of biotinylated extracellular domain of the human GIP receptor (bioGIPR) (human) (P48546 24-138 limits assumed): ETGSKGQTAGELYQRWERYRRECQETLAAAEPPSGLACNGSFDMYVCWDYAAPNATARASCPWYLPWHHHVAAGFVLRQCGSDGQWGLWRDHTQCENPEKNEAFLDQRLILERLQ

Regarding “H-Met-Tyr-Asp-Trp-Trp-Pro-Glu-Leu-[Cys(2MeBn)-Ala-Leu-Ile-Cys]-NH2 (peptide)”, in assay [1], the pIC50 fell in the range of 6.1 to 7 pic50. The same measure, in the same setting: to Ac-[Cya]G[Trp(5-Cl)][Hyp]E[dL]C[Aib]LI[Cysteamide] (linker 7-11 via 2Lut″) [Ac-Cya-Gly-5Clw-Hyp-Glu-leu-[Cys(2Lut)-Aib-Leu-Ile-AET]] belongs 6.1 to 7 pic50.

B1: Ac-Asp-Trp-5Clw-Hyp-Glu-leu-[Cys(2Lut)-Thp-Leu-Ser-Cys]-NH2 (peptide)
peptide: Ac-DW[Trp(5-Cl)][Hyp]E[dL]C[Thp]LSC-NH2
modifications: linker 7-11 via Pyridine(2,6-diCH2)
SMILES: CC(=O)N[C@@H](CC(=O)O)C(=O)N[C@@H](Cc1c[nH]c2ccccc12)C(=O)N[C@@H](Cc1c[nH]c2ccc(Cl)cc12)C(=O)N1C[C@H](O)C[C@H]1C(=O)N[C@@H](CCC(=O)O)C(=O)N[C@H](CC(C)C)C(=O)N[C@H]1CSCc2cccc(n2)CSC[C@@H](C(N)=O)NC(=O)[C@H](CO)NC(=O)[C@H](CC(C)C)NC(=O)C2(CCOCC2)NC1=O
Consider B1, for which the pIC50 in assay [1] was in the range of 6.1 to 7 pic50. For the molecule {DOTA-Ttds}-DW[Trp(5-Cl)][Pro(4S-NH2)](Ac)E[dL]C[Aib]LI[Cysteamide] (linker 7-11 via mXylylene) [DOTA-Ttds-Asp-Trp-5Clw-4Ap(Ac)-Glu-leu-[Cys(3MeBn)-Aib-Leu-Ile-AET]], the pIC50 in assay [2] is above 8 pic50. For the same molecule, the pKD in assay [3] is 8.1 to 9 pkd. The molecule also had a t1/2 in assay [4] above 15 min.

B2: DOTA-APAc-Asp-Gly-5Clw-Hyp-Glu-leu-[Cys(2Lut)-Thp-Leu-Ile-AET] (peptide)
peptide: {DOTA-APAc″}-DG[Trp(5-Cl)][Hyp]E[dL]C[Thp]LI[Cysteamide]
modifications: linker (positions not given here) via Pyridine(2,6-diCH2); not fully specified (bridges); printed as DOTA-APAc-Asp-Gly-5Clw-Hyp-Glu-leu-[Cys(2Lut)-Thp-Leu-Ile-AET]
As for B2, the pIC50 in assay [1] lay within 6.1 to 7 pic50.

The molecule Ac-DW[Trp(5-Cl)][Hyp]E[dL]C[Thp]LIC-NH2 (disulfide 7-11) [Ac-Asp-Trp-5Clw-Hyp-Glu-leu-[Cys-Thp-Leu-Ile-Cys]-NH2] gave a pIC50 in assay [1] of 6.1 to 7 pic50. The same measure, in the same setting: to Ac-DW[Phe(3-Cl)][Hyp]E[dL]C[Thp]LIC-NH2 (linker 7-11 via 2Lut″) [Ac-Asp-Trp-Mcf-Hyp-Glu-leu-[Cys(2Lut)-Thp-Leu-Ile-Cys]-NH2] belongs 6.1 to 7 pic50.

B3: Ac-Asp-Trp-5Clw-Hyp-Har-leu-[Cys(2Lut)-Thp-Leu-Ile-Cys]-NH2 (peptide)
peptide: Ac-DW[Trp(5-Cl)][Hyp][hArg][dL]C[Thp]LIC-NH2
modifications: linker 7-11 via Pyridine(2,6-diCH2)
SMILES: CC[C@H](C)[C@@H]1NC(=O)[C@H](CC(C)C)NC(=O)C2(CCOCC2)NC(=O)[C@@H](NC(=O)[C@@H](CC(C)C)NC(=O)[C@H](CCCCNC(=N)N)NC(=O)[C@@H]2C[C@@H](O)CN2C(=O)[C@H](Cc2c[nH]c3ccc(Cl)cc23)NC(=O)[C@H](Cc2c[nH]c3ccccc23)NC(=O)[C@H](CC(=O)O)NC(C)=O)CSCc2cccc(n2)CSC[C@@H](C(N)=O)NC1=O
In assay [3], B3 registered a pKD of 8.1 to 9 pkd. Besides, in assay [4], the t1/2 is above 15 min. The same molecule gave a pIC50 in assay [5] of 7.1 to 8 pic50.

B4: Ac-Asp-Trp-5Clw-Hyp-Lys-leu-[Cys(2Lut)-Thp-Leu-Ile-Cys]-NH2 (peptide)
peptide: Ac-DW[Trp(5-Cl)][Hyp]K[dL]C[Thp]LIC-NH2
modifications: linker 7-11 via Pyridine(2,6-diCH2)
SMILES: CC[C@H](C)[C@@H]1NC(=O)[C@H](CC(C)C)NC(=O)C2(CCOCC2)NC(=O)[C@@H](NC(=O)[C@@H](CC(C)C)NC(=O)[C@H](CCCCN)NC(=O)[C@@H]2C[C@@H](O)CN2C(=O)[C@H](Cc2c[nH]c3ccc(Cl)cc23)NC(=O)[C@H](Cc2c[nH]c3ccccc23)NC(=O)[C@H](CC(=O)O)NC(C)=O)CSCc2cccc(n2)CSC[C@@H](C(N)=O)NC1=O
In the case of B4, in assay [3], the pKD was 8.1 to 9 pkd. This molecule also had a t1/2 in assay [4] above 15 min. Also, in assay [6], the pIC50 is above 8 pic50. In assay [1], Ac-D[Phe(2-Cl)][Trp(5-Cl)][Hyp]E[dL]C[Thp]LIC (linker 7-11 via Pyridine(2,6-diCH2); not fully specified (C-terminus)) [Ac-Asp-Ocf-5Clw-Hyp-Glu-leu-[Cys(2Lut)-Thp-Leu-Ile-Cys]-lys(DOTA)-NH2] yielded a pIC50 of 6.1 to 7 pic50.

B5: Ac-Asp-Trp-5Clw-Hyp-His-leu-[Cys(2Lut)-Thp-Leu-Ile-Cys]-NH2 (peptide)
peptide: Ac-DW[Trp(5-Cl)][Hyp]H[dL]C[Thp]LIC-NH2
modifications: linker 7-11 via Pyridine(2,6-diCH2)
SMILES: CC[C@H](C)[C@@H]1NC(=O)[C@H](CC(C)C)NC(=O)C2(CCOCC2)NC(=O)[C@@H](NC(=O)[C@@H](CC(C)C)NC(=O)[C@H](Cc2c[nH]cn2)NC(=O)[C@@H]2C[C@@H](O)CN2C(=O)[C@H](Cc2c[nH]c3ccc(Cl)cc23)NC(=O)[C@H](Cc2c[nH]c3ccccc23)NC(=O)[C@H](CC(=O)O)NC(C)=O)CSCc2cccc(n2)CSC[C@@H](C(N)=O)NC1=O
As for B5, in assay [3], the pKD lay in the range of 8.1 to 9 pkd. The same molecule had a t1/2 in assay [4] above 15 min. Further, the pIC50 in assay [6] is above 8 pic50. For the molecule {DOTA-Ttds}-D[Trp(6-F)]WPE[dL]C[Aib]LI[Cysteamide] (linker 7-11 via mXylylene) [DOTA-Ttds-Asp-6Fw-Trp-Pro-Glu-leu-[Cys(3MeBn)-Aib-Leu-Ile-AET]], the pIC50 in assay [1] fell in the range of 6.1 to 7 pic50.

B6: Ac-Asp-Trp-5Clw-Hyp-Hly-leu-[Cys(2Lut)-Thp-Leu-Ile-Cys]-NH2 (peptide)
peptide: Ac-DW[Trp(5-Cl)][Hyp][hLys][dL]C[Thp]LIC-NH2
modifications: linker 7-11 via Pyridine(2,6-diCH2)
SMILES: CC[C@H](C)[C@@H]1NC(=O)[C@H](CC(C)C)NC(=O)C2(CCOCC2)NC(=O)[C@@H](NC(=O)[C@@H](CC(C)C)NC(=O)[C@H](CCCCCN)NC(=O)[C@@H]2C[C@@H](O)CN2C(=O)[C@H](Cc2c[nH]c3ccc(Cl)cc23)NC(=O)[C@H](Cc2c[nH]c3ccccc23)NC(=O)[C@H](CC(=O)O)NC(C)=O)CSCc2cccc(n2)CSC[C@@H](C(N)=O)NC1=O
Turning to B6, in assay [3], the pKD lay within 8.1 to 9 pkd. Also, the t1/2 in assay [4] was above 15 min. In assay [6], this molecule had a pIC50 above 8 pic50.

B7: Ac-Asp-Eaa-Eaa-Hyp-Glu-leu-[Cys(2Lut)-Thp-Leu-Ile-Cys]-NH2 (peptide)
peptide: Ac-D[Phe(3,4-Cl2)][Phe(3,4-Cl2)][Hyp]E[dL]C[Thp]LIC-NH2
modifications: linker 7-11 via Pyridine(2,6-diCH2)
SMILES: CC[C@H](C)[C@@H]1NC(=O)[C@H](CC(C)C)NC(=O)C2(CCOCC2)NC(=O)[C@@H](NC(=O)[C@@H](CC(C)C)NC(=O)[C@H](CCC(=O)O)NC(=O)[C@@H]2C[C@@H](O)CN2C(=O)[C@H](Cc2ccc(Cl)c(Cl)c2)NC(=O)[C@H](Cc2ccc(Cl)c(Cl)c2)NC(=O)[C@H](CC(=O)O)NC(C)=O)CSCc2cccc(n2)CSC[C@@H](C(N)=O)NC1=O
With B7, the pIC50 in assay [1] was in the range of 6.1 to 7 pic50.

As for Suc-W[Trp(5-Cl)][Hyp]E[dL]C[Api](MeO10kDaPEGAc)LIC-{APAc-Lys(DOTA)-NH2} (linker 6-10 via 2Lut) [HO-Succinyl-Trp-5Clw-Hyp-Glu-leu-[Cys(2Lut)-Apc(MeO10kDaPEGAc)-Leu-Ile-Cys]-APAc-Lys(DOTA)-NH2], the pKD in assay [3] lay in the range of 8.1 to 9 pkd. For the same molecule, the t1/2 in assay [4] is above 15 min. The molecule further came in with a pIC50 in assay [7] of 7.1 to 8 pic50. With Ac-DW[Trp(5-Cl)][Hyp]R[dL]C[Thp]LIC-NH2 (linker 7-11 via Pyridine(2,6-diCH2)) [Ac-Asp-Trp-5Clw-Hyp-Arg-leu-[Cys(2Lut)-Thp-Leu-Ile-Cys]-NH2], in assay [3], the pKD lay within 8.1 to 9 pkd. The t1/2 in assay [4] was above 15 min. In assay [6], this molecule registered a pIC50 above 8 pic50.
